One substance from US20260116949A1 can be followed below.

The target in the test is endogenous TCRs of un-transduced activated human T cells (Untd). Kind of test: flow cytometry, FITC-anti-human TCR Vβ13.1 staining of un-transduced activated human T cells. For orientation: In flow cytometry, cells or beads pass a laser one at a time.

“FITC anti-human TCR Vβ13.1 Antibody (EBIOSCIENCE, …X, THERMO FISHER …)” displayed a % of cells positive for staining of 3.9%.
